The values below are quoted from earlier work in article PMC11277083, “A Natural Bioactive Peptide from Pinctada fucata Pearls Can Be Used as a Potential Inhibitor of the Interaction between SARS-CoV-2 and ACE2 against COVID-19” (International Journal of Molecular Sciences, 2024).

The series concerns SARS-CoV-2 pseudoparticle. The following applies: pretreatment; blocking the interaction between ACE2 and the RBD.

B1: human defensin 5 (HD5): human defensin 5 (peptide, UniProt Q01523 20-94, looked up)
Defensin alpha 5: ESLQERADEATTQKQSGEDNQDLAISFAGNGLSALRTSGSQARATCYCRTGRCATRESLSGVCEISGRLYRLCCR
modifications: Defensin-5
In the case of B1, the “effect on SARS-CoV-2 pseudoparticle infection” value is listed as “could reduce SARS-CoV-2 pseudoparticle infection”.
